Data: US20140087995A1 (published 2014)
One block for each binder: values may come before it. Numbered stars: 1 amine (or outer) side, 2 acyl side, 3 side chain; on linkers, the order of the positions; unused ones are H or OH. Bridge positions count the residues as written; N and C are the ends. Side chains are listed from the residue outwards. Ends that are not written are not given here. * marks the point of attachment. C20 diacid = O=C(O)CCCCCCCCCCCCCCCCCCC(=O)*; γGlu = O=C(O)[C@H](CCC(=O)[*:2])N[*:1]; AEEA = NCCOCCOCC(=O)O

What was measured:
[1] = target: T1, human calcitonin receptor (human, UniProt P30988 25-474); assay: ratio of hCTR IC50 to hAmylin-R IC50 (reference: human amylin receptor)
T1 construct: whole, on cells; Used as cell membranes; also called hCTR; hCT
T1 sequence (looked up): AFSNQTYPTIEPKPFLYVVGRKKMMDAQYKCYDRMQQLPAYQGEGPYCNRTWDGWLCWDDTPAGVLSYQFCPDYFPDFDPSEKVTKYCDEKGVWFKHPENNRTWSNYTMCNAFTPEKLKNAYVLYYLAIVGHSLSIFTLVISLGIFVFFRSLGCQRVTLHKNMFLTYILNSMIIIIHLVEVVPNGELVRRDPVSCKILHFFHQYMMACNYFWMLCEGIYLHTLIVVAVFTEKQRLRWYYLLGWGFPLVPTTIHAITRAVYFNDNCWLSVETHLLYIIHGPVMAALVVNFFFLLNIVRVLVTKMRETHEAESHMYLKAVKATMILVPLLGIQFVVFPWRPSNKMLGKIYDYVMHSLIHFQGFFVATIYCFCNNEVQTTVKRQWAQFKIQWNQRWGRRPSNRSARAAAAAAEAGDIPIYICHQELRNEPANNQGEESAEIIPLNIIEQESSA
Experimental: The resulting pellet was resuspended, homogenized and centrifuged (20.000 rpm, 15 min) in a buffer containing 20 mM Na-HEPES and 0.1 mM EDTA (pH 7.4, buffer 2). The resulting pellet was resuspended in buffer 2 and protein concentration was measured (BCA protein Assay, Pierce). The homogenate was kept cold during the whole procedure. The membranes were kept at −80° C. until use. The assay was performed in a 384 well Optiplate (PerkinElmer) in a total volume of 40 ul. Membranes were mixed with SPA beads. Final concentration of membranes 35 ng/μL final and SPA beads was 0.05 mg/well. Test-compounds were dissolved in DMSO and further diluted in assay buffer (50 mM Hepes, pH 7.4, 1 mM CaCl2, 5 mM MgCl₂, 0.1% OA and 0.02% Tween20). […] The final mixture was incubated with shaking at 400 rpm for 120 min at 25° C. prior to centrifugation (1500 rpm, 10 min). Samples were analyzed on TopCounter™ (Packard). The IC₅₀ was calculated using (one site binding competition analysis) GraphPad Prism5 as a measure of receptor affinity.
Membranes were prepared in the following way; the cells were rinsed with PBS and incubated with Versene for approximately 5 min before harvesting. The cells were flushed with PBS and the cell-suspension was centrifuged for 5 min at 1000 rpm. Cells were homogenized (Ultrathurrax) in a buffer containing 20 mM Na-HEPES and 10 mM EDTA (pH 7.4) and centrifuged at 20.000 rpm for 15 min. The resulting pellet was resuspended, homogenized and centrifuged (20.000 rpm, 15 min) in a buffer containing 20 mM Na-HEPES and 0.1 mM EDTA (pH 7.4, buffer 2). The resulting pellet was resuspended in buffer 2 and protein concentration was measured (BCA protein Assay, Pierce). The homogenate was kept cold during the whole procedure. The membranes were kept at −80° C. until use. Assay was performed in a 384 well Optiplate (PerkinElmer) in a total volume of 40 ul. Membranes were mixed with SPA beads.

[2] = target: T1, human calcitonin receptor; assay: SPA competition on BHK cell membranes, 125I-calcitonin as radioligand (Assay VII)
Experimental: Membranes were prepared in the following way; the cells were rinsed with PBS and incubated with Versene for approximately 5 min before harvesting. The cells were flushed with PBS and the cell-suspension was centrifuged for 5 min at 1000 rpm. Cells were homogenized (Ultrathurrax) in a buffer containing 20 mM Na-HEPES and 10 mM EDTA (pH 7.4) and centrifuged at 20.000 rpm for 15 min. The resulting pellet was resuspended, homogenized and centrifuged (20.000 rpm, 15 min) in a buffer containing 20 mM Na-HEPES and 0.1 mM EDTA (pH 7.4, buffer 2). The resulting pellet was resuspended in buffer 2 and protein concentration was measured (BCA protein Assay, Pierce). The homogenate was kept cold during the whole procedure. The membranes were kept at −80° C. until use. Assay was performed in a 384 well Optiplate (PerkinElmer) in a total volume of 40 ul. Membranes were mixed with SPA beads. Final concentration of membranes 35 ng/μL final and Final concentration of SPA beads was 0.05 mg/well. Test-compounds were dissolved in DMSO and further diluted in assay buffer (50 mM Hepes, pH 7.4, 1 mM CaCl2, 5 mM MgCl₂, 0.1% OA and 0.02% Tween20). […] The final mixture was incubated for 120 min with shaking at 400 rpm at 25° C. prior to centrifugation (1500 rpm, 10 min). Samples were analyzed on TopCounter™ (Packard). The […] was calculated using (one site binding competition analysis) GraphPad Prism5 as a measure of receptor affinity.

Ratio hCT/hAmylin binding [1]: 80
IC50 [2]: 17.2 nM
B1: N^ε1-[2-[2-[2-[[(4S)-4-carboxy-4-(19-carboxynonadecanoylamino)butanoyl]amino]ethoxy]ethoxy]acetyl]-[Arg17,Pro21,Pro27,His34]-h-amylin (peptide)
peptide: K([AEEA-γGlu-C20 diacid])CNTATCATQRLANFLRHSSPNFGAIPSSTNVGHNTY-NH2
modifications: disulfide 2-7; N-terminus assumed
SMILES: CC[C@H](C)[C@H](NC(=O)[C@H](C)NC(=O)CNC(=O)[C@H](Cc1ccccc1)NC(=O)[C@H](CC(N)=O)NC(=O)[C@@H]1CCCN1C(=O)[C@H](CO)NC(=O)[C@H](CO)NC(=O)[C@H](Cc1c[nH]cn1)NC(=O)[C@H](CCCNC(=N)N)NC(=O)[C@H](CC(C)C)NC(=O)[C@H](Cc1ccccc1)NC(=O)[C@H](CC(N)=O)NC(=O)[C@H](C)NC(=O)[C@H](CC(C)C)NC(=O)[C@H](CCCNC(=N)N)NC(=O)[C@H](CCC(N)=O)NC(=O)[C@@H](NC(=O)[C@H](C)NC(=O)[C@@H]1CSSC[C@H](NC(=O)[C@@H](N)CCCCNC(=O)COCCOCCNC(=O)CC[C@H](NC(=O)CCCCCCCCCCCCCCCCCCC(=O)O)C(=O)O)C(=O)N[C@@H](CC(N)=O)C(=O)N[C@@H]([C@@H](C)O)C(=O)N[C@@H](C)C(=O)N[C@@H]([C@@H](C)O)C(=O)N1)[C@@H](C)O)C(=O)N1CCC[C@H]1C(=O)N[C@@H](CO)C(=O)N[C@@H](CO)C(=O)N[C@H](C(=O)N[C@@H](CC(N)=O)C(=O)N[C@H](C(=O)NCC(=O)N[C@@H](Cc1c[nH]cn1)C(=O)N[C@@H](CC(N)=O)C(=O)N[C@H](C(=O)N[C@@H](Cc1ccc(O)cc1)C(N)=O)[C@@H](C)O)C(C)C)[C@@H](C)O
notes: also called compound 76

Ratio hCT/hAmylin binding [1]: 79.6
IC50 [2]: 13.2 nM
B2: N^ε1-[2-[2-[2-[[2-[2-[2-[[(4S)-4-carboxy-4-(19-carboxynonadecanoylamino)butanoyl]amino]ethoxy]ethoxy]acetyl]amino]ethoxy]ethoxy]acetyl]-[Arg17,Pro21,Pro27,Pro31 … (peptide)
peptide: K([AEEA-AEEA-γGlu-C20 diacid])CNTATCATQRLANFLRHSSPNFGAIPSSTPVGSNTY-NH2
modifications: disulfide 2-7; N-terminus assumed
SMILES: CC[C@H](C)[C@H](NC(=O)[C@H](C)NC(=O)CNC(=O)[C@H](Cc1ccccc1)NC(=O)[C@H](CC(N)=O)NC(=O)[C@@H]1CCCN1C(=O)[C@H](CO)NC(=O)[C@H](CO)NC(=O)[C@H](Cc1c[nH]cn1)NC(=O)[C@H](CCCNC(=N)N)NC(=O)[C@H](CC(C)C)NC(=O)[C@H](Cc1ccccc1)NC(=O)[C@H](CC(N)=O)NC(=O)[C@H](C)NC(=O)[C@H](CC(C)C)NC(=O)[C@H](CCCNC(=N)N)NC(=O)[C@H](CCC(N)=O)NC(=O)[C@@H](NC(=O)[C@H](C)NC(=O)[C@@H]1CSSC[C@H](NC(=O)[C@@H](N)CCCCNC(=O)COCCOCCNC(=O)COCCOCCNC(=O)CC[C@H](NC(=O)CCCCCCCCCCCCCCCCCCC(=O)O)C(=O)O)C(=O)N[C@@H](CC(N)=O)C(=O)N[C@@H]([C@@H](C)O)C(=O)N[C@@H](C)C(=O)N[C@@H]([C@@H](C)O)C(=O)N1)[C@@H](C)O)C(=O)N1CCC[C@H]1C(=O)N[C@@H](CO)C(=O)N[C@@H](CO)C(=O)N[C@H](C(=O)N1CCC[C@H]1C(=O)N[C@H](C(=O)NCC(=O)N[C@@H](CO)C(=O)N[C@@H](CC(N)=O)C(=O)N[C@H](C(=O)N[C@@H](Cc1ccc(O)cc1)C(N)=O)[C@@H](C)O)C(C)C)[C@@H](C)O
notes: also called compound 96

Ratio hCT/hAmylin binding [1]: 42.2
IC50 [2]: 2.57 nM
B3: N^ε1-[2-[2-[2-(19-carboxynonadecanoylamino)ethoxy]ethoxy]acetyl]-[His14,Arg17,Pro21,Pro27]-h-amylin (peptide)
peptide: K([AEEA-C20 diacid])CNTATCATQRLAHFLRHSSPNFGAIPSSTNVGSNTY-NH2
modifications: disulfide 2-7; N-terminus assumed
SMILES: CC[C@H](C)[C@H](NC(=O)[C@H](C)NC(=O)CNC(=O)[C@H](Cc1ccccc1)NC(=O)[C@H](CC(N)=O)NC(=O)[C@@H]1CCCN1C(=O)[C@H](CO)NC(=O)[C@H](CO)NC(=O)[C@H](Cc1c[nH]cn1)NC(=O)[C@H](CCCNC(=N)N)NC(=O)[C@H](CC(C)C)NC(=O)[C@H](Cc1ccccc1)NC(=O)[C@H](Cc1c[nH]cn1)NC(=O)[C@H](C)NC(=O)[C@H](CC(C)C)NC(=O)[C@H](CCCNC(=N)N)NC(=O)[C@H](CCC(N)=O)NC(=O)[C@@H](NC(=O)[C@H](C)NC(=O)[C@@H]1CSSC[C@H](NC(=O)[C@@H](N)CCCCNC(=O)COCCOCCNC(=O)CCCCCCCCCCCCCCCCCCC(=O)O)C(=O)N[C@@H](CC(N)=O)C(=O)N[C@@H]([C@@H](C)O)C(=O)N[C@@H](C)C(=O)N[C@@H]([C@@H](C)O)C(=O)N1)[C@@H](C)O)C(=O)N1CCC[C@H]1C(=O)N[C@@H](CO)C(=O)N[C@@H](CO)C(=O)N[C@H](C(=O)N[C@@H](CC(N)=O)C(=O)N[C@H](C(=O)NCC(=O)N[C@@H](CO)C(=O)N[C@@H](CC(N)=O)C(=O)N[C@H](C(=O)N[C@@H](Cc1ccc(O)cc1)C(N)=O)[C@@H](C)O)C(C)C)[C@@H](C)O
notes: also called compound 90

Ratio hCT/hAmylin binding [1]: 74.1
IC50 [2]: 6.74 nM
B4: N^ε1-[2-[2-[2-[[2-[2-[2-[[(4S)-4-carboxy-4-(19-carboxynonadecanoylamino)butanoyl]amino]ethoxy]ethoxy]acetyl]amino]ethoxy]ethoxy]acetyl]-[Arg17,Pro21,Pro27,Pro34 … (peptide)
peptide: K([AEEA-AEEA-γGlu-C20 diacid])CNTATCATQRLANFLRHSSPNFGAIPSSTNVGPNTY-NH2
modifications: disulfide 2-7; N-terminus assumed
SMILES: CC[C@H](C)[C@H](NC(=O)[C@H](C)NC(=O)CNC(=O)[C@H](Cc1ccccc1)NC(=O)[C@H](CC(N)=O)NC(=O)[C@@H]1CCCN1C(=O)[C@H](CO)NC(=O)[C@H](CO)NC(=O)[C@H](Cc1c[nH]cn1)NC(=O)[C@H](CCCNC(=N)N)NC(=O)[C@H](CC(C)C)NC(=O)[C@H](Cc1ccccc1)NC(=O)[C@H](CC(N)=O)NC(=O)[C@H](C)NC(=O)[C@H](CC(C)C)NC(=O)[C@H](CCCNC(=N)N)NC(=O)[C@H](CCC(N)=O)NC(=O)[C@@H](NC(=O)[C@H](C)NC(=O)[C@@H]1CSSC[C@H](NC(=O)[C@@H](N)CCCCNC(=O)COCCOCCNC(=O)COCCOCCNC(=O)CC[C@H](NC(=O)CCCCCCCCCCCCCCCCCCC(=O)O)C(=O)O)C(=O)N[C@@H](CC(N)=O)C(=O)N[C@@H]([C@@H](C)O)C(=O)N[C@@H](C)C(=O)N[C@@H]([C@@H](C)O)C(=O)N1)[C@@H](C)O)C(=O)N1CCC[C@H]1C(=O)N[C@@H](CO)C(=O)N[C@@H](CO)C(=O)N[C@H](C(=O)N[C@@H](CC(N)=O)C(=O)N[C@H](C(=O)NCC(=O)N1CCC[C@H]1C(=O)N[C@@H](CC(N)=O)C(=O)N[C@H](C(=O)N[C@@H](Cc1ccc(O)cc1)C(N)=O)[C@@H](C)O)C(C)C)[C@@H](C)O
notes: also called compound 98
